Test results from article PMC10951451 (Current Therapeutic Research, Clinical and Experimental, 2024).
Like-named read-outs stand apart in the source and are kept apart here.

Assay type: in vivo, Norwegian domestic pigs (Sus scrofa domesticus)
Settings: for AUC0–∞ with AUC of porcine insulin subtracted: mean (SD)

**Q.** What does the source list for insulin aspart?
**A.** AUC0–∞ with AUC of porcine insulin subtracted (glucagon group: 10 IU insulin aspart sc + 100 µg glucagon, n = 6): 7908 (1159) mU/L/min; Median AUC0–∞ plasma insulin concentration (glucagon group: 10 IU insulin aspart sc + 100 µg glucagon): 8419 mU/L/min; AUC0–∞ with AUC of porcine insulin subtracted (placebo group: 10 IU insulin aspart sc + saline, 1 of 6 pigs excluded): 5372 (994) mU/L/min; Median AUC0–∞ plasma insulin concentration (placebo group: 10 IU insulin aspart sc + saline): 6211 mU/L/min
